Test results taken from article PMC5134462, “Electrochemical Aptasensor for Myoglobin-Specific Recognition Based on Porphyrin Functionalized Graphene-Conjugated Gold Nanocomposites”.

Molecular target: T1, myoglobin (human, UniProt P02144 2-154)
T1 sequence: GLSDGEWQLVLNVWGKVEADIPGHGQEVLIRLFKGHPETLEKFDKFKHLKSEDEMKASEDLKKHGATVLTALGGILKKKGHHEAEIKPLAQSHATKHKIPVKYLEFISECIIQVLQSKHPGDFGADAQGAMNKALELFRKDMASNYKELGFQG
Test: electrochemical aptasensor (DPV); aptamer immobilized on TCPP-Gr/AuNPs/GCE; 45 min incubation; 1.47e-10 M myoglobin; LOD 6.7e-12 M, linear 2.0e-11 to 7.7e-7 M (not Kd); Aptamer dissolved in T-buffer: 20 mM Tris-HCl, 0.10 M NaCl, 5.0 mM MgCl2, 10 mM TCEP, pH 7.4; binding buffer and temperature not given in the material
Settings: protein: native; label: ferrocene (3')

B1: MbBA (myoglobin-binding aptamer) (ssDNA)
DNA: CCCTCCTTTCCTTCGACGTAGATCTGCTGCGTTGTTCCGA
modifications: 5' SH-(CH2)6; 3' ferrocene (Fc)
- binding result: binds
